Experimental data reported in PMC3281904, “Novel Covalently Linked Insulin Dimer Engineered to Investigate the Function of Insulin Dimerization” (PLoS ONE, 2012).
Marks after values point to notes of the source that are not given here.

Assays:
[1] = target: B25C insulin precursor (human) (UniProt P01308); assay: LC/MS; LC/MS of the fermentations; mass of a disulfide-linked dimer
[2] = hexameric insulin, previously determined, ref 65 (HI), 66 (bovine), 67 (porcine), cited from earlier work
Text: Table 2 The experimental parameters determined from the fit in Figure 2 and results previously determined for hexameric insulin of human and porcine origin. | column: Standard Sedimentation Coefficient s20,w, [S]; Standard Diffusion Coefficient D20,w, (×10−7 [cm^2/s]); Molar mass [kg/mole]; Rh [nm]

Question: For “B25C insulin precursor (from UniProt P01308 1-29)”, which stoichiometry N [1] is on record?
Answer: Its stoichiometry N is 2.

Question: With “Bovine insulin: hexameric bovine insulin, literature values” as the substance, how does the “Standard Sedimentation Coefficient s20,w” value ([2]; HI probably affected by non-ideality) read?
Answer: The value was 3.12 S.

Question: And the Molar mass [2]?
Answer: The Molar mass was 34.4 kg/mol.

Question: What about the Rh [2] of the same substance?
Answer: Its Rh is 2.63 nm.

Question: And the “Standard Diffusion Coefficient D20,w” value [2]?
Answer: Its value is 8.35 ^* ×10−7 cm^2/s.
